Laboratory results reported in patent US20240016917A1 (ACADEMIA SINICA, published 2024).

Experiments:
[1] = biological target: T1, SARS-CoV-2 S protein (entire S ectodomain) (SARS-CoV-2, UniProt P0DTC2 14-1209)
Beta = Beta (SARS-CoV-2)
Alpha = Alpha (SARS-CoV-2)
[2] = biological target: T1, SARS-CoV-2 S protein (entire S …); test: biolayer interferometry (BLI)

B1: monoclonal antibody (mAb) m31A7 (antibody, V domains shown)
VH: EVQLQQSGPEMVKPGASVKISCKTSGYTFTEYTIYWVKQSHGKSLEWLGGINPNIGDTTYNQKFKGKATLTVDTSSSTAYMELRSLTSEDSAVYYCAREVYNYSFAYWGQGTLVTVSA
VL: DIVMSQSPSSLAVSVGEKVTMSCKSSQSLLYSSNQKNYLAWYQQKLGQTPKLLIYWASSRESGVPDRFTGSGSGTDFTLTISSVRAEDLAVYYCQQYYRYPLTFGVGTKLELKR
With B1 the EC50 [1] was 0.0312 nM, the EC50 (WT) was 0.0685 nM and the EC50 (Beta) was 0.0325 nM. The EC50 (D614G) was 0.0321 nM, the EC50 (Alpha) was 0.0446 nM and the Kd [2] was 0.0709 nM.
